Here are results for 1 substance from patent US6133009.

The data set deals with HpyCH4V restriction endonuclease (Helicobacter pylori CH4). Nature of the data set: cleavage_in_vitro. Conditions: fragments of 576, 498, 441, 335, 315, 312, 296, 244, 205 bp and 12 smaller than 200 bp.

Turning to pBR322 DNA, the number of cleavage fragments is 21 fragments.
